Tests used:
Assay type in all cases: binding
[1] = system: GST-fused IGF1 (insulin growth factor I receptor) C-tail; test: GST-pull down, IGF1 C-tail; settings: non-GPCR control
Source text: (§1) cDNAs encoding the cytoplasmic C-tail of 14 GPCRs and 2 one-transmembrane receptors were cloned into the pGEX-2T prokaryotic expression vector downstream the GST sequence. The following pGEX constructs were engineered: pGEX-DOR encoding residues 314–372 of the δ-opioid receptor (referring to Swiss-Prot accession number U10504), pGEX-MOR encoding residues 334–400 of the µ-opioid receptor (L29301), pGEX-KOR encoding residues 326–380 of the κ–opioid receptor (U17298), pGEX-ORL1 encoding residues 315–370 of the opioid receptor-like 1 (X77130), pGEX-M1 encoding residues 414–460 of the muscarinic M1 acetylcholine receptor (X52068), pGEX-M2 encoding residues 436–466 of the muscarinic M2 acetylcholine receptor (M16404), pGEX- ADRB1 encoding residues 373–477 of the β1 adrenergic receptor (J03019), pGEX-ADRB2 encoding residues 322–413 of the β2 adrenergic receptor (P07550), pGEX-CALCR encoding residues 407–490 of the calcitonin receptor (L00587), pGEX-CNR2 encoding residues 295–360 of the cannabinoid type 2 receptor (P34972), pGEX-5HT7 encoding residues 380–445 of the 5-hydroxytryptamine 7 receptor (L21195), pGEX-H2 encoding residues 284–349 of the histamine 2 receptor (S57565), pGEX-TXA2 encoding residues 304–343 of the α isoform of the thromboxane A2 receptor (D38081), pGEX-FZ4 encoding residues 493–537 of the frizzled 4 receptor (AB032417), pGEX-TGFβ encoding residues 805–849 of the type III transforming growth factor b receptor (L07594), pGEX-IGF1 encoding residues 1268–1367 of the insulin growth factor I receptor (X04434). Free GST was produced by using the pGEX-4T3 expression vector without insert. The same plasmid was used to clone the cDNA encoding a central domain of GASP-1, corresponding to amino acids 380 to 1073, downstream the GST sequence. All these plasmids were transformed into the Escherichia coli BL21 strain and expression was induced using 1mM of isopropylthiogalactoside for 2 h at 37°C. Bacteria were then pelleted, resuspended in PBS supplemented with cOmplete protease inhibitors (Roche), lysed at 1.5 kbar using a basic Z cell disrupter (constant system) and finally the lysates were cleared by centrifugation (10,000g, 15 min, 4°C).
(§2) cDNAs encoding GASP-1 and GASP-2 were cloned into the pcDNA3 eukaryotic expression vectors. cDNAs encoding GASP-3, -6, -7, and -9 were subcloned into pcDNA3.1 vectors. All the clones were controlled by DNA sequencing. The in vitro production was performed by using the TNT Quick-coupled Transcription/Translation T7 kit (Promega) in presence of [^35S]-Methionine according to the instructions from the manufacturer.
(§3) GST-fusion proteins were immobilized on glutathione-coupled Sepharose beads (GE Healthcare) for 1 h at 4°C and incubated with [^35S]-labelled in vitro translated GASP proteins or their truncated or mutated forms in ice-cold binding buffer containing: 20 mM Tris-HCl pH 7.4, 150 mM NaCl, 1 mM EDTA, 1 mM DTT, 10% glycerol and 1% Triton X-100. The mixture was incubated for 1 h at 4°C with gentle rocking. The beads were washed five times with the same ice-cold buffer, resuspended in 30 µl SDS-PAGE sample buffer, incubated 10 min at 65°C, and pelleted for 60 s at 3000 g. The supernatants were then analyzed by SDS-PAGE, the gels were stained with Coomassie blue to visualize GST-fusion proteins, dried and analyzed using a Phosphor-imager (Personal Molecular Imager FX, Biorad) to visualize [^35S]-labelled GASPs. Quantification was performed with the Quantity One software (Biorad). GST-pull down quantification data were analyzed using GraphPad Prism 4.03 (GraphPad Software). Quantifications presented are means of at least three independent experiments.

GST-fused GPCR C-tails = test: GST-pull down, GPCR C-tails; settings: for interaction with GPCR C-tails: twelve GPCR C-tails
Source text: as §1, §2
as §3, with “experiments. […]” for “experiments.”

[2] = system: GST-fused TGFβ (type III transforming growth factor β receptor) C-tail; test: GST-pull down, TGFβ C-tail; settings: non-GPCR control
Source text: as §1, §2, §3

GST-fused DOR C-tail = test: GST-pull down, DOR C-tail; settings: compared with full-length GASP-1
Source text: as §1, §2, §3

| Molecule | interaction with IGF1 C-tail [1] | interaction with GPCR C-tails (GST-fused GPCR C-tails) | interaction with TGFβ C-tail [2] | GASP input retained by GPCR C-tails (GST-fused GPCR C-tails; percent of GASP input) [%] | interaction of truncated GASP-1 with DOR C-tail (GST-fused DOR C-tail) |
| --- | --- | --- | --- | --- | --- |
| GASP-7: member of the second GASP subfamily, without GASP motif (protein, [35S]-methionine labelled) MGRTREAGCVAAGVVIGAGACYCVYRLAWGRDENEKIWDEDEESTDTSEIGVETVKGAKTNAGAGSGAKLQGDSEVKPEVSLGLEDCPGVKEKAHSGSHSGGGLEAKAKALFNTLKEQASAKAGKGARVGTISGNRTLAPSLPCPGGRGGGCHPTRSGSRAGGRASGKSKGKARSKSTRAPATTWPVRRGKFNFPYKIDDILSAPDLQKVLNILERTNDPFIQEVALVTLGNNAAYSFNQNAIRELGGVPIIAKLIKTKDPIIREKTYNALNNLSVNAENQGKIKTYISQVCDDTMVCRLDSAVQMAGLRLLTNMTVTNHYQHLLSYSFPDFFALLFLGNHFTKIQIMKLIINFTENPAMTRELVSCKVPSELISLFNKEWDREILLNILTLFENINDNIKNEGLASSRKEFSRSSLFFLFKESGVCVKKIKALANHNDLVVKVKVLKVLTKL | No interaction was detected | weak to medium interactions and weak | No interaction was detected |  |  |
| GASP-2: member of the GASP family, two GASP motifs (protein, [35S]-methionine labelled) MTGAEIEPSAQAKPEKKAGEEVIAGPERENDVPLVVRPKVRTQATTGARPKTETKSVPAARPKTEAQAMSGARPKTEVQVMGGARPKTEAQGITGARPKTDARAVGGARSKTDAKAIPGARPKDEAQAWAQSEFGTEAVSQAEGVSQTNAVAWPLATAESGSVTKSKGLSMDRELVNVDAETFPGTQGQKGIQPWFGPGEETNMGSWCYSRPRAREEASNESGFWSADETSTASSFWTGEETSVRSWPREESNTRSRHRAKHQTNPRSRPRSKQEAYVDSWSGSEDEASNPFSFWVGENTNNLFRPRVREEANIRSKLRTNREDCFESESEDEFYKQSWVLPGEEANSRFRHRDKEDPNTALKLRAQKDVDSDRVKQEPRFEEEVIIGSWFWAEKEASLEGGASAICESEPGTEEGAIGGSAYWAEEKSSLGAVAREEAKPESEEEAIFGSWFWDRDEACFDLNPCPVYKVSDRFRDAAEELNASSRPQTWDEVTVEFKPGLFHGVGFRSTSPFGIPEEASEMLEAKPKNLELSPEGEEQESLLQPDQPSPEFTFQYDPSYRSVREIREHLRARESAESESWSCSCIQCELKIGSEEFEEFLLLMDKIRDPFIHEISKIAMGMRSASQFTRDFIRDSGVVSLIETLLNYPSSRVRTSFLENMIHMAPPYPNLNMIETFICQVCEETLAHSVDSLEQLTGIRMLRHLTMTIDYHTLIANYMSGFLSLLTTANARTKFHVLKMLLNLSENPAVAKKLFSAKALSIFVGLFNIEETNDNIQIVIKMFQNISNIIKSGKMSLIDDDFSLEPLISAFREFEELAKQLQAQIDNQNDPEVGQQS | no interaction was detected | medium to strong interactions | no interaction was detected | > 10 |  |
| mutant D: derived from mutant 924–1395 by deletion of 95 AA from the C-terminus (protein, UniProt Q5JY77 924-1300, looked up, fragment) CCVSKPEDDEEMIVESWFWSRDKAIKETGTVATCESKPENEEGAIVGSWFEAEDEVDNRTDNGSNCGSRTLADEDEAIVGSWFWAGDEAHFESNPSPVFRAICRSTCSVEQEPDPSRRPQSWEEVTVQFKPGPWGRVGFPSISPFRFPKEAASLFCEMFGGKPRNMVLSPEGEDQESLLQPDQPSPEFPFQYDPSYRSVQEIREHLRAKESTEPESSSCNCIQCELKIGSEEFEELLLLMEKIRDPFIHEISKIAMGMRSASQFTRDFIRDSGVVSLIETLLNYPSSRVRTSFLENMIRMAPPYPNLNIIQTYICKVCEETLAYSVDSPEQLSGIRMIRHLTTTTDYHTLVANYMSGFLSLLATGNAKTRFHVLKML |  |  |  |  | completely lost |
| mutant C: derived from mutant 924–1395 by deletion of 45 AA from the C-terminus (protein, UniProt Q5JY77 924-1350, looked up, fragment) CCVSKPEDDEEMIVESWFWSRDKAIKETGTVATCESKPENEEGAIVGSWFEAEDEVDNRTDNGSNCGSRTLADEDEAIVGSWFWAGDEAHFESNPSPVFRAICRSTCSVEQEPDPSRRPQSWEEVTVQFKPGPWGRVGFPSISPFRFPKEAASLFCEMFGGKPRNMVLSPEGEDQESLLQPDQPSPEFPFQYDPSYRSVQEIREHLRAKESTEPESSSCNCIQCELKIGSEEFEELLLLMEKIRDPFIHEISKIAMGMRSASQFTRDFIRDSGVVSLIETLLNYPSSRVRTSFLENMIRMAPPYPNLNIIQTYICKVCEETLAYSVDSPEQLSGIRMIRHLTTTTDYHTLVANYMSGFLSLLATGNAKTRFHVLKMLLNLSENLFMTKELLSAEAVSEFIGLFNREETNDNIQIVLAIFENIGNNIK |  |  |  |  | strong interaction |
